Experimental data from article PMC3137230 (ACS Chemical Biology, 2011).

Target: the molecule itself
Test: crystal structure

B1: MmOmeRS, C-terminal catalytic domain (residues 185-454) of the evolved Methanosarcina mazei pyrrolysyl-tRNA synthetase (enzyme, UniProt Q8PWY1 185-454, looked up)
chain: ASAPALTKSQTDRLEVLLNPKDEISLNSGKPFRELESELLSRRKKDLQQIYAEERENYLGKLEREITRFFVDRGFLEIKSPILIPLEYIERMGIDNDTELSKQIFRVDKNFCLRPMLTPNLYNYLRKLDRALPDPIKIFEIGPCYRKESDGKEHLEEFTMLVFWQMGSGCTRENLESIITDFLNHLGIDFKIVGDSCMVFGDTLDVMHGDLELSSALVGPIPLDREWGIDKPWIGAGFGLERLLKVKHDFKNIKRAARSESYYNGISTNL
Does B1 bind?
Result: binds
